From PMC11110527 (Chemical Science, 2024) come the findings set out here.

This series concerns the molecule itself. The experiment in a line: negative-stain electron microscopy.

B1: AtPORB Y177F_H319A double mutant (enzyme, A. thaliana)
chain: QTAATSSPTVTKSVDGKKTLRKGNVVVTGASSGLGLATAKALAETGKWNVIMACRDFLKAERAAKSVGMPKDSYTVMHLDLASLDSVRQFVDNFRRTETPLDVLVCNAAVFFPTAKEPTYSAEGFELSVATNHLGHFLLARLLLDDLKKSDYPSKRLIIVGSITGNTNTLAGNVPPKANLGDLRGLAGGLNGLNSSAMIDGGDFDGAKAYKDSKVCNMLTMQEFHRRFHEETGVTFASLYPGCIASTGLFREAIPLFRALFPPFQKYITKGYVSETESGKRLAQVVSDPSLTKSGVYWSWNNASASFENQLSEEASDVEKARKVWEISEKLVGLA
As to B1, the binding result is given as “binds”.
